# Assay results: IntAct's records for PubMed 21763481
# B1: B9 domain-containing protein 2 (Mus musculus), Q3UK10 (parent)
# chain: MAEVHVIGQIIGATGFSESSLFCKWGIHTGAAWKLLSGVREGQTQVDTPQIGDMAYWSHPIDLHFATKGLQGWPRLHLQVWSQDSFGRCQLAGYGFCHVPSSPGTHQLDCPTWRPLGSWREQLARAFVGGGPQLLHADTIYSGADRYRLHTAAGGTVHLGIGLLLRHFDRYGVEC
# partner: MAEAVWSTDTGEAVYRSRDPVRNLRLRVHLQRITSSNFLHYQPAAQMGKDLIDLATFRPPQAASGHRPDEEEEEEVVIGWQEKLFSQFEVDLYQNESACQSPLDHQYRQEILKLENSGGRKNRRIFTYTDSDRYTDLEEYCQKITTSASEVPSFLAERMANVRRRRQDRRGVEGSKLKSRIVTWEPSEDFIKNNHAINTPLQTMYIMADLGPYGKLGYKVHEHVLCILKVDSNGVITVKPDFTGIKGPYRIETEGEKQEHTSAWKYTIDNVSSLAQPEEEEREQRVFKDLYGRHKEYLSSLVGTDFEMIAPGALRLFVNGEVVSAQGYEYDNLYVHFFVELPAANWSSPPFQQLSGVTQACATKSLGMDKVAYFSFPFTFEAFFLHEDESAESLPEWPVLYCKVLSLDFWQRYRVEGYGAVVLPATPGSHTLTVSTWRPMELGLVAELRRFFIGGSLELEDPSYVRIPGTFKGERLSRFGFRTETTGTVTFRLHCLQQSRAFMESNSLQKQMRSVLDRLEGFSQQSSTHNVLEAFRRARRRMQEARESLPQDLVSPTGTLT
# B2: B9 domain-containing protein 2 (Mus musculus), Q3UK10 (parent)
# chain: B1 chain
# partner: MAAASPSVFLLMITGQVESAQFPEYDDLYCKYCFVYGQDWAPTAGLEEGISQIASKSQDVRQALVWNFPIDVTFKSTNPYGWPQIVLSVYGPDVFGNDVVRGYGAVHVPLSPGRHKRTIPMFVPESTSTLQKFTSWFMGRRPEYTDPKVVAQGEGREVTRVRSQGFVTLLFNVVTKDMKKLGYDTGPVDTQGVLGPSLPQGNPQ
# Variants of: B1
# Settings: with mks1_mouse Mks1, Q5SW45
row,effect of a mutation on the interaction,Variant
1,disrupting interaction,S101R

# Variants of: B2
# Settings: with b9d1_mouse B9d1, Q9R1S0
row,effect of a mutation on the interaction,Variant
1,with no effect,S101R
